# Results reported in patent US20180037654A1 (ADURO BIOTECH HOLDINGS EUROPE B V, published 2018).
# T1: Mou-Hum-CTLA-4 (mouse/human chimera)
# T1 construct: Mouse residues on strand 1, 2, 5 and 6 and human residues on strand 3, 4, 7 and 8; transiently expressed on CHO-K1 cells; also called mouse-human variant; mouse-human exchange mutant
# T1 chain: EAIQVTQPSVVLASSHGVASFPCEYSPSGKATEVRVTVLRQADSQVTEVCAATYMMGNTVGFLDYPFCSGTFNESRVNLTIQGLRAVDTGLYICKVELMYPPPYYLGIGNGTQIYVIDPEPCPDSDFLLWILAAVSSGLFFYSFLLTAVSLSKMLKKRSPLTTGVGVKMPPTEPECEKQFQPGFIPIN
# Columns and labels:
# [1] = molecular target: T2, human CTLA-4 (Y166G and Y183G) expressed on CHO-K1.hCTLA-4 cells (human, UniProt P16410 36-223); test: CELISA on CHO-K1.hCTLA-4 cells
# Protocol: Binding of the humanized antibodies to hCTLA-4 was studied in CELISA format. CHO-K1.hCTLA-4 cells were seeded in culture medium (DMEM-F12 (Gibco) with 10% Fetal Bovine Serum (Hyclone) and Pen/Strep (Gibco)) in tissue culture plates and cultured at 37° C., 5% CO₂ and 95% humidity until they were confluent. Subsequently, culture medium was removed and cells were incubated for 1 hour at 37° C., 5% CO₂ and 95% humidity with purified hCTLA-4 antibodies (10 μg/ml and dilutions thereof). Next, cells were washed with PBS/0.05% Tween (PBST) and incubated for 1 hour at 37° C., 5% CO₂ and 95% humidity with goat-anti-human IgG-HRP (Southern Biotechnology) or goat-anti-mouse IgG-HRP (Southern Biotechnology). Subsequently, cells were washed 3 times with PBST and anti-hCTLA-4 immunoreactivity was visualized with TMB Stabilized Chromagen (Invitrogen). Reactions were stopped with 0.5 M H₂SO₄ and absorbances were read at 450 and 610 nm.
# Target sequence in this assay (P16410 36-223 Y201G/Y218G limits assumed): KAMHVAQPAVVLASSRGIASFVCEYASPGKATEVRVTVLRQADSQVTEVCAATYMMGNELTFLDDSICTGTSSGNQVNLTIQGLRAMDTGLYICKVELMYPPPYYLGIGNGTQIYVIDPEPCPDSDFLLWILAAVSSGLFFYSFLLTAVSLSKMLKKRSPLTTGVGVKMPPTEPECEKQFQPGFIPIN
# [2] = molecular target: T2, human CTLA-4 (Y166G and Y183G) …; test: CELISA, blockade of biotinylated hCD80/Fc binding to CHO-K1.hCTLA-4 cells
# Protocol: CHO-K1.hCTLA-4 cells were seeded in tissue culture plates and incubated at 37° C., 5% CO₂ and 95% humidity in culture medium. Once the cells were confluent culture medium was removed and cells were incubated for 1 hour with the humanized hCTL4.27 antibody variants (10 μg/ml and dilutions thereof) at 37° C., 5% CO₂ and 95% humidity. […] Cells were then washed with PBST followed by addition of Streptavidin-HRP conjugate on the cells, which was incubated for 1 hour at 37° C., 5% CO₂ and 95% humidity. […] Reactions were stopped with 0.5 M H₂SO₄ and absorbances were read at 450 and 610 nm. […] IC50 values represent the concentration at which half of the inhibition is observed.
# Target sequence in this assay (P16410 36-223 Y201G/Y218G limits assumed): as above
# Mou-Hum-CTLA-4 = molecular target: T1, Mou-Hum-CTLA-4; test: CELISA on CHO-K1 cells transiently transfected with Mou-Hum-CTLA-4, panel Mouse/Human
# Protocol: The cDNAs encoding these constructs (SEQ ID NO: 41 and 43, respectively) were synthesized and subcloned into the pCI-Neo vector (GeneArt). […] To this end CHO-K1 cells were transiently transfected, using Lipofectamine 2000 (Invitrogen), with the pCI-Neo vectors expressing human CTLA-4 (hCTLA-4), mouse CTLA-4 (mCTLA-4) (SEQ ID NO: 45), Hum-Mou-CTLA-4, and Mou-Hum-CTLA-4 respectively. The transfected cells were cultured at 37° C., 5% CO₂ and 95% humidity in medium (DMEM-F12 (Gibco) with 5% New Born Calf serum (Biowest) and Pen/Strep (Gibco)) until confluent. Subsequently, cells were trypsinized and seeded in tissue culture plates and cultured at 37° C., 5% CO₂ and 95% humidity in culture medium until confluent. Then, culture medium was removed and cells were incubated for 1 hour at 37° C., 5% CO₂ and 95% humidity with hCTLA-4 antibodies. Next, cells were washed with PBS/0.05% Tween (PBST) and incubated for 1 hour at 37° C., 5% CO₂ and 95% humidity with 1:2,000 goat-anti-human IgG-HRP (Jackson Immunoresearch). After that, cells were washed 3 times with PBST and anti-CTLA-4 immunoreactivity was visualized with TMB Stabilized Chromagen (Invitrogen).
# [3] = molecular target: T2, human CTLA-4 (Y166G and Y183G) …; test: CELISA on CHO-K1.hCTLA-4 cells (Example 6)
# Protocol: (§1) In short, CELISA for hCTLA-4 binding was performed on CHO-K1.hCTLA-4 cells. […] Once the cells were confluent culture medium was removed and cells were incubated for 1 hour with the hCTL4.27 antibodies and control antibodies (10 μg/ml and dilutions thereof) at 37° C., 5% CO₂ and 95% humidity. […] Cells were then washed with PBST followed by addition of Streptavidin-HRP conjugate on the cells, which was incubated for 1 hour at 37° C., 5% CO₂ and 95% humidity. […] Reactions were stopped with 0.5 M H₂SO₄ and absorbances were read at 450 and 610 nm. IC50 values represent the concentration at which half of the inhibition is observed.
# [4] = molecular target: T2, human CTLA-4 (Y166G and Y183G) …; test: CELISA, blockade of biotinylated hCD80/Fc binding to CHO-K1.hCTLA-4 cells (Example 6)
# Protocol: as §1
# [5] = molecular target: T2, human CTLA-4 (Y166G and Y183G) …; test: CELISA, blockade of biotinylated hCD86/Fc binding to CHO-K1.hCTLA-4 cells (Example 6)
# Protocol: as §1
binder,measurement,setting,value
"hCTLA4.27H3L2 (antibody, human IgG4 S228P, kappa, V domains shown, Humanized, human IgG4 (S228P) kappa; H3 read as hCTLA4.27VH3, L2 as hCTLA4.27VL2) VH: EVQLVQSGAVVAKPGSSVKVSCKASGYSFTTYWMNWVRQAPGQGLEWMGMIHPSDSETSLNQAFKDRVTITADKSTSTAYMELSSLTSEDTAVYYCARMGRRNPYYFDYWGQGTTVTVSS VL: DIQMTQSPSSLSASVGDRVTITCRPSENLYTNLAWYQQKPGKAPKLLIYGATNLADGVPSRFSGSGSGTEFSLSISSLQPEDFATYYCQHLWGTPFTFGGGTKVEIKR",EC50,[1],65 pM
same,IC50,[2],2060 pM
"hCTLA4.27H2L5 (antibody, human IgG4 S228P, kappa, V domains shown, Humanized, human IgG4 (S228P) kappa; H2 read as hCTLA4.27VH2, L5 as hCTLA4.27VL5) VH: EVQLVQSGAVLVKPGASVKVSCKASGYSFTTYWMNWVRQRPGKGLEWIGMIHPSDSETSLNQAFKDKVTITADESTSTAYMQLSSLRSEDTAVYYCARMGRRNPYYFDYWGQGTTVTVSS VL: DIQMTQAPSSLSASVGDRVTITCRPSENLYTNLAWYQQKPGKAPKLLLYGATNLADGVPSRFSGSGSGTDYTLTISSLQAEDFATYYCQHLWGTPFTFGGGTKLEIKR",EC50,[1],45 pM
same,IC50,[2],2720 pM
"hCTLA4.27H2L2 (antibody, human IgG4 S228P, kappa, V domains shown, Humanized, human IgG4 (S228P) kappa; H2 read as hCTLA4.27VH2, L2 as hCTLA4.27VL2) VH: EVQLVQSGAVLVKPGASVKVSCKASGYSFTTYWMNWVRQRPGKGLEWIGMIHPSDSETSLNQAFKDKVTITADESTSTAYMQLSSLRSEDTAVYYCARMGRRNPYYFDYWGQGTTVTVSS VL: DIQMTQSPSSLSASVGDRVTITCRPSENLYTNLAWYQQKPGKAPKLLIYGATNLADGVPSRFSGSGSGTEFSLSISSLQPEDFATYYCQHLWGTPFTFGGGTKVEIKR",EC50,[1],44 pM
same,IC50,[2],2590 pM
"hCTLA4.27H6L2 (antibody, human IgG4 S228P, kappa, V domains shown, Humanized, human IgG4 (S228P) kappa; H6 read as hCTLA4.27VH6, L2 as hCTLA4.27VL2) VH: EVQLLESGPELVRPGSSVKISCKASGYSFTTYWMNWVKQRPGKGLEWIGMIHPSDSETSLNQAFKDKVKLTAATSASIAYLEFSSLRNEDSAVYYCARMGRRNPYYFDYWGQGTLVTVSS VL: DIQMTQSPSSLSASVGDRVTITCRPSENLYTNLAWYQQKPGKAPKLLIYGATNLADGVPSRFSGSGSGTEFSLSISSLQPEDFATYYCQHLWGTPFTFGGGTKVEIKR",EC50,[1],27 pM
same,IC50,[2],1800 pM
"hCTLA4.27H4L2 (antibody, human IgG4 S228P, kappa, V domains shown, Humanized, human IgG4 (S228P) kappa; H4 read as hCTLA4.27VH4, L2 as hCTLA4.27VL2) VH: EVQLVQSGAEVKKPGASVKVSCKASGYSFTTYWMNWVRQAPGQGLEWMGMIHPSDSETSLNQAFKDRVTMTRDTSTSTVYMELSSLRSEDTAVYYCARMGRRNPYYFDYWGQGTLVTVSS VL: DIQMTQSPSSLSASVGDRVTITCRPSENLYTNLAWYQQKPGKAPKLLIYGATNLADGVPSRFSGSGSGTEFSLSISSLQPEDFATYYCQHLWGTPFTFGGGTKVEIKR",EC50,[1],47 pM
same,IC50,[2],2520 pM
"hCTLA4.27H4L1 (antibody, human IgG4 S228P, kappa, V domains shown, Humanized, human IgG4 (S228P) kappa; H4 read as hCTLA4.27VH4, L1 as hCTLA4.27VL1) VH: EVQLVQSGAEVKKPGASVKVSCKASGYSFTTYWMNWVRQAPGQGLEWMGMIHPSDSETSLNQAFKDRVTMTRDTSTSTVYMELSSLRSEDTAVYYCARMGRRNPYYFDYWGQGTLVTVSS VL: DIQMTQSPSSLSASVGDRVTITCRPSENLYTNLAWYQQKPGKAPKLLLYGATNLADGVPSRFSGSGSGTDYTLTISSLQPEDFATYYCQHLWGTPFTFGQGTKLEIKR",EC50,[1],70 pM
same,IC50,[2],3330 pM
"hCTLA4.27H3L5 (antibody, human IgG4 S228P, kappa, V domains shown, Humanized, human IgG4 (S228P) kappa; H3 read as hCTLA4.27VH3, L5 as hCTLA4.27VL5) VH: EVQLVQSGAVVAKPGSSVKVSCKASGYSFTTYWMNWVRQAPGQGLEWMGMIHPSDSETSLNQAFKDRVTITADKSTSTAYMELSSLTSEDTAVYYCARMGRRNPYYFDYWGQGTTVTVSS VL: DIQMTQAPSSLSASVGDRVTITCRPSENLYTNLAWYQQKPGKAPKLLLYGATNLADGVPSRFSGSGSGTDYTLTISSLQAEDFATYYCQHLWGTPFTFGGGTKLEIKR",EC50,[1],82 pM
same,IC50,[2],3670 pM
"hCTLA4.27H4L5 (antibody, human IgG4 S228P, kappa, V domains shown, Humanized, human IgG4 (S228P) kappa; H4 read as hCTLA4.27VH4, L5 as hCTLA4.27VL5) VH: EVQLVQSGAEVKKPGASVKVSCKASGYSFTTYWMNWVRQAPGQGLEWMGMIHPSDSETSLNQAFKDRVTMTRDTSTSTVYMELSSLRSEDTAVYYCARMGRRNPYYFDYWGQGTLVTVSS VL: DIQMTQAPSSLSASVGDRVTITCRPSENLYTNLAWYQQKPGKAPKLLLYGATNLADGVPSRFSGSGSGTDYTLTISSLQAEDFATYYCQHLWGTPFTFGGGTKLEIKR",EC50,[1],61 pM
same,IC50,[2],3080 pM
"hCTLA4.27H4L3 (antibody, human IgG4 S228P, kappa, V domains shown, Humanized, human IgG4 (S228P) kappa; H4 read as hCTLA4.27VH4, L3 as hCTLA4.27VL3) VH: EVQLVQSGAEVKKPGASVKVSCKASGYSFTTYWMNWVRQAPGQGLEWMGMIHPSDSETSLNQAFKDRVTMTRDTSTSTVYMELSSLRSEDTAVYYCARMGRRNPYYFDYWGQGTLVTVSS VL: DIQMTQSPSSLSASVGDTVTITCRPSENLYTNLAWYQQKPGKAPKLLLYGATNLADGVPSRFSGSGSGTDYTLTISSLQSEDFATYYCQHLWGTPFTFGQGTKLEIKR",EC50,[1],51 pM
same,IC50,[2],3260 pM
"hCTLA4.27H3L3 (antibody, human IgG4 S228P, kappa, V domains shown, Humanized, human IgG4 (S228P) kappa; H3 read as hCTLA4.27VH3, L3 as hCTLA4.27VL3) VH: EVQLVQSGAVVAKPGSSVKVSCKASGYSFTTYWMNWVRQAPGQGLEWMGMIHPSDSETSLNQAFKDRVTITADKSTSTAYMELSSLTSEDTAVYYCARMGRRNPYYFDYWGQGTTVTVSS VL: DIQMTQSPSSLSASVGDTVTITCRPSENLYTNLAWYQQKPGKAPKLLLYGATNLADGVPSRFSGSGSGTDYTLTISSLQSEDFATYYCQHLWGTPFTFGQGTKLEIKR",EC50,[1],101 pM
same,IC50,[2],3360 pM
"10D1 (antibody, V domains shown) VH: QVQLVESGGGVVQPGRSLRLSCAASGFTFSSYTMHWVRQAPGKGLEWVTFISYDGNNKYYADSVKGRFTISRDNSKNTLYLQMNSLRAEDTAIYYCARTGWLGPFDYWGQGTLVTVSS VL: not shown",EC50 (read off the curve),Mou-Hum-CTLA-4,~70 pM
"hCTLA4.27A.C1 (antibody, V domains shown, Chimeric: mouse variable domains on human IgG1, kappa; also called hCTLA4.27A chimeric hIgG1) VH: QVQLQQPGAVLVRPGVSVKLSCKASGYSFTTYWMNWVKQRPGQGLEWIGMIHPSDSETSLNQAFKDKATLTIDKSSSTAYMQLSSPTSEDSAVYFCARMGRRNPYYFDYWGQGTTLTVSS VL: DIQMTQSPVSLSVSVGETVTITCRPSENLYTNLAWYQQKQGKSPQLLVYGATNLADGVPSRFSGSGSGTQYSLRINSLQSEDFGTYYCQHLWGTPFTFGSGTKLELK",EC50,[1],22 pM
same,EC50,[3],34 pM
same,IC50,[2],1540 pM
same,IC50,[4],1450 pM
same,IC50,[5],1180 pM
